A short description of this data set: yeast display, Sf9 membrane polyspecificity reagent, FACS + sequencing; frameworks hold sequencing errors. The method in brief:
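Galactose-induced (36–48 hours) yeast carrying a synthetic nanobody display library were exposed to 10% biotinylated, detergent-solubilized Sf9 membrane reagent at 4 °C for 1 hour. FACS followed streptavidin microbead enrichment, using low and high (top ~1%) gates for expression (anti-HA) and reagent binding (streptavidin). Colony PCR, MiSeq 2 × 250 sequencing and CDR-length filtering followed. Labels for polyreactivity reflect the gate of origin.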
For the sequence “QVQLVESGGGLVQAGGSLRLSCAASGSTFLLYAMGWYRQAPGKERELVATISWGGDGTYYADSVKGRFTISRDHAKNTDYLQMNSLKPDDTAVYDCAAQSYLVQFYFLYYYWGQGTQVTVSS”, the “polyreactivity (PSR sort gate)” value is “low polyreactivity”.

For the sequence “QVQLVESGGGLVQAGGSLRLSCAASGNTFGRNAMGWYIQAPGKERELVAAIDIGADTNYADSVKGRFTISRDNAKNTVYLQMNSLKPEDTAVYYCAASYRYVRWKWGYNYWGQGTQVTVSS”, the “polyreactivity (PSR sort gate)” value is reported as “high polyreactivity”.

Consider “HVQLVESGGGLVQAGGSLRISCAASGLIFVFYAMGWYRQAPGKERELVAAISTSGDRTYYADSVKGRFTISRDNAKNTVYLQMISLKPEDTAVYFCNARRLGYRSGHPGYYWGQGTQVTVSS”, for which the “polyreactivity (PSR sort gate)” value is on record as “high polyreactivity”.

As to “QVQLVESGGGLVQAGGSLRLSCAASGSTFYTNDMGWYRQAPGKERELVAAITSAGNTNYADSVKGSFTISRDNAKNTVYLQMNSLKPEDTAVYYYYYYQYDYWGQGTQVTVSS”, the “polyreactivity (PSR sort gate)” value was “low polyreactivity”.

As for “QVQLLESGGGLVQAGGSLRLSCAASGRTLDRNAMGWYRQAPGKERELVAAISRRTGSTYYADSVKGRFTISRDNAKNTVYLQMNSLKPEDTAVYYCNKVTYGDFDYWGQGTQVTVSS”, the “polyreactivity (PSR sort gate)” value was “high polyreactivity”.

As to “QVQLVESGGGLVQAGGSLRLSCAASGRIFGLNAMGWYRQAPGKEREFVAAIRWRGGSTYYADSVKGRFTISRDNAKNTVYLQMNSLKPEDTAVYYCAADRNLGVSRYGYWGQGTQVTVSS”, the “polyreactivity (PSR sort gate)” value was “high polyreactivity”.

As for “QVQLVESGGGLVQAGGSLRLSCAASGRIFDHYAMVWYRQAPGKERELVAAITRSGGITYYADSVKGRFTISRDNAKYTVYLQMNSLKPEDTAVYYCAALSYRYTDNFDYWGQGTQVTVSS”, the “polyreactivity (PSR sort gate)” value is reported as “low polyreactivity”.

Take “QVQLVESGGGLLQAGGSLRLSCAASGSTCHRNTMGWSRQAPGKESELVAGISLRGVRTYYADSVKSRFTISRDNAKNTVYLQMNSLKPEDTAVYYCAAGGPYTRNFKLGYWGQGTQVTVSS”: the “polyreactivity (PSR sort gate)” value is recorded as “high polyreactivity”.

Turning to “QYQLVESGGGLVQAGGRLRLSCAASGSIFSNYAMGWYRQAPGKERQFVAAISGGGGSTYYADSVKGRFTISRDNANNTVYLQMNSLKPEDTAVYYCARVRYYGALKLYAYDHWGQGTQVTVSS”, the “polyreactivity (PSR sort gate)” value is on record as “high polyreactivity”.

With “QVQLVESGGGLVQAGGSLRLSCAASGSTFVSYAMGWYRQAPGKESELVAGISWSGTRTYYADSVKGRFTISRDNAKNTVYLQMNSLKPEDTAVYYCAARDSSYNWYGYWGQGTQVTVSS”, the “polyreactivity (PSR sort gate)” value was “high polyreactivity”.

Consider “QEQLQESGVGLVQAGGSLRLICEASGSISQAWYMGWYRQAPGKERELVAAINVGAITYYADSVKGRFSISRDNAKNTVYLPMNSLTPDDTAVYYCAVDQYSEAYYDYWGQGTQATVSS”, for which the “polyreactivity (PSR sort gate)” value is “high polyreactivity”.

Consider “QVQVVESGGGLVQAGGSLRLSCAASGRIFANNAMGWYRQAPGKERELVAAITASSGSTYYADSVKGRFTISRDNAKNTVYFQMNSLKPEDTAFYYCAATLRWGFRWYFGFDYWGQGTQVTVSS”, for which the “polyreactivity (PSR sort gate)” value is reported as “high polyreactivity”.

Turning to “QVQLVESGGGLVQAGGSLRLSCAASGFIFSYYAMGWYRQAPGKERELVAAISSSGSRTYYADSVKGRFTISRDNAKNTVYLQMNSLKPEDTAVYYCNARTTSGWGQGTQVTVSS”, the “polyreactivity (PSR sort gate)” value is “high polyreactivity”.

Take “QVQLVESGGGLVQAGGSLRLSCAASGSTLFVNTKGWYRQAPGNERELVAAITSSGGSRYYADSVKGRFTISRDNAKNTVYLQMNSLKPQDTAVYYCAAKELGSPYDYWGQGTQVTVSS”: the “polyreactivity (PSR sort gate)” value is recorded as “high polyreactivity”.

In the case of “QVQLVESGGGLVQAGGSLRLSCAASGFTFPYYAMGWYRQAPGKERELVADITSGGGTNYADSVKGRFTISRDNAKNTVYLQMNSLKPEDTAVYYCAADAYHQGMDYWGQGTQVTVSS”, the “polyreactivity (PSR sort gate)” value is “low polyreactivity”.

With “QVQLVESGGGLVQAGGSLRLSSAASGFTFDCNTMGWYRQAPGKERELVALISSTGGRTYYADSVQGRFSISRDNAKNTVYLQMNSLKPEDTAGSYCNKRRRNPVGYDYWGLGTQVTVSS”, the “polyreactivity (PSR sort gate)” value is listed as “high polyreactivity”.

As for “QVQLVESGGGLVQAGGSLRLSCAASGRTFTSYAMGCYRQEPGKERELVAAITRGGRTNYADSVKGRFTISRDNAKNTVYLQMNSLKPEDTAVYYCNTEIRLSKYDYWGQGTQVTVSS”, the “polyreactivity (PSR sort gate)” value is recorded as “low polyreactivity”.

As to “QVQLVESGGGLVQAGGSLRLSCAASGSIIRVNTMGWYRQAPGKERELVAGITSRGGSTYYADSVKGRFTISRDNAKNTVYLQMISLKPEDTAFYYCANRAYGTALYRGYGNWGQGTQVTVSS”, the “polyreactivity (PSR sort gate)” value is recorded as “low polyreactivity”.

“QVQLVESGGGLVQAGGSLRLSCAASGSIFYSNAMGWYRQAPGKERELVATIRSGGTTYYADSVKGRFTISRDNAKNTVYLQMNSLKPEDTAVYYCANRYGVKYWGQGTQVTVSS”: the “polyreactivity (PSR sort gate)” value is “high polyreactivity”.

On to “QVQLVESGGGLVQAGGSLRLSCAASGFTFRYYAMGWYRQAPGKERELVARISSRGGSTNYADSVKGRFTISRDNAKNTVYLQMNSLKAEDTAVYFCAAASWNSNRHYYVARYYYWGQGTQVTVSS”, for which the “polyreactivity (PSR sort gate)” value is reported as “high polyreactivity”.

As for “QFQLVESGGGLVQAGGSLRLSCAASGFIFSNNAMGWYRQAPGKDRELVAAISKSGGGTSYADSVKGRFTISRDNAKNTVYLQMNSLKPDDTAVYYCAKEWRKKTDYDYWGQGTQVTVSS”, the “polyreactivity (PSR sort gate)” value is “high polyreactivity”.

With “QVQLVESGGGLVQAGGSLRLSCAASGFIFRRNAMGWYRQAPGKERELVAAITGGGGSTYYADSVKGRFTISRDNAKNTVYLQMNSLKPEDTAVYYCAVDWSRFYNRGGDYWGQGTQVTVSS”, the “polyreactivity (PSR sort gate)” value is “high polyreactivity”.

“QVQLVESGGRLVQAGGSLRLSCAASGSIFFSNAMGWYRQAPGKERELVAAITSTGGSTYYADSVKGRFTISRDNAKNTVYLQMNSLKPEDTAVYYCAAASRRGYYYWGQGTQVTVSS”: the “polyreactivity (PSR sort gate)” value was “high polyreactivity”.

For “QVQLVESGGGLVQSGASLRLSCAASGRISRFNAMGWYRQAPGKERELVAAISSGGSTHYADSVKGRFTISRDNAKITVYLQMNSLKPEDTAVYYCAASVYRWWRLEAYYYWGQGSQVTVSS”, the “polyreactivity (PSR sort gate)” value is listed as “high polyreactivity”.

Consider “QVQLVESGGGLVQAGGSLRLICAASGRIFRPYAMGWYRQAPGKERELVAAISSSGGSTYYADSVKGRFTISRDNAKNTVYLQMNSLKPEDTAVYYCATYFARGRRYDYWGQGTQVTVSS”, for which the “polyreactivity (PSR sort gate)” value is given as “high polyreactivity”.

As for “QVQLVESGGGLVQAGGSLRLSCAASGSIFHVYAMGWYRQAPGKERELVAAIDRSGGSTYYADSVKGRFTISRDNAKNTVYLQMNSLKPEDTAVYYCAKDVLGGQITDGVGNDYWGQGTQVTVSS”, the “polyreactivity (PSR sort gate)” value is “low polyreactivity”.

Turning to “QVQLVESGGGLVQAGGSLRLSCAASGSTFQWYAIGWYRQAPGKERELVATISYTGGSRTYYADSVKGRFTISRDNAKNTVYLQMNILKPEDTAVYYCAAESNQLFYFRRFDYWGQGTQVTVSS”, the “polyreactivity (PSR sort gate)” value is on record as “low polyreactivity”.

As to “QVQLVESGGGLDQARGSLRLSCAASGITFHPNAMGWYRQAPGKERELVAAISGRRSRTYYADSVKGRFIISRDNAKNTVYLLLNSLKPEDTAVYYCAKDHPSGRQYDYWGQGTQVTVSS”, the “polyreactivity (PSR sort gate)” value is “high polyreactivity”.

In the case of “QVQLVESGGGFFQAGGSLRLSCAASGTIGRNAMGWYRQAPGKESEFVPAISYRGTSTYYADSVKGRFTISRDNAKNTVYLQMKSLKPDDTAVYYCATYWAAGYRSRYDYWGQVTQVTVSS”, the “polyreactivity (PSR sort gate)” value is “high polyreactivity”.

Consider “QVHLVESGGGLVQAGGSLRLSCAASGSIFGYNAMGWYRQAPGKERELVAAISLTTGSTYYADSVKGRFTISRDNAKNTVYLQMNSLKPEDTAVYYCAIRGFYRGYGQAYGYWGQGTLVTVSS”, for which the “polyreactivity (PSR sort gate)” value is “high polyreactivity”.

Consider “QVQLVESGGGLVQAGGSLRLSCAASGRTFTKNAMGWYRQAPGKEREFVAAISKSTGSTYYADSVKGRFTISRDNAKNTVYLQMNSLKPEDTAVYYCNARYRFFIQARWGYIFGYWGQGTQVTVSS”, for which the “polyreactivity (PSR sort gate)” value was “high polyreactivity”.

For the sequence “QVQLVETGGGLVQAGGSLRLSCAGSVSIFNRNAMGWYRQAPGKERELVAAISNSGARTYYADSVKGRFTISRDNAKNTVYLQMNSLKPEDTAVYYCTAVRRRSKLYNYWGQGTQVTVSS”, the “polyreactivity (PSR sort gate)” value is on record as “high polyreactivity”.

In the case of “QVQLVESGGGLVQAGGSLRLSCAASGSIFTPYAMGWYRQAPGKERELVAAISRSGGSTYYADSVKGRFTISRDNAKITVYLQMNSLKPEDTAVYYCAVVASLSHTETPEYDYWGQGTQGTVSS”, the “polyreactivity (PSR sort gate)” value is “low polyreactivity”.

As to “QVKLVESGGGLVQAGGSLRLSCAASGSTYHSNAMGWYRRAHGKEMEFVASISIGGSTNYADSVKGRYTISRDNAKNTVYLQMNSLKAEDTAVYYSATEPNPRRPRVDYDYWGQGTQVTVSS”, the “polyreactivity (PSR sort gate)” value was “low polyreactivity”.

Regarding “QVQRVESGGGLVQAGGSLRLSCAASGLIFVVYAMGWYRQAPGKERELVADISSGGRTSYADSVKGRFTISRDNAKNTVYLQMNSLKPEDTAVYYCNAYPVFNQYYGWRYDYWGQGTQVTVSS”, the “polyreactivity (PSR sort gate)” value is listed as “low polyreactivity”.

Turning to “QVQLVESGGGLVQAGGSLRLSCAPSGSTIVRYAMGWYRQAPGKERELVAAISGSGGTTYYADSVKGRFTISRDNAKNTVYLQMNSLKPEDTAVYYCATRISAMDYWGQGTQVTVSS”, the “polyreactivity (PSR sort gate)” value is on record as “high polyreactivity”.

With “QVQLVESGGGLVQAGGSLRLSCAASGFIFDQYAMGWYRQAPGKERELVATINWSGGRTYYADSVKGRFTISRDNAKNTVYLQMNSLKPEDTAVYYCAADTYRTKLHSFRTGSGYDYWGQGTQVTVSS”, the “polyreactivity (PSR sort gate)” value is reported as “low polyreactivity”.

“QVQLVEAGGGLVQAGGSLRFSCAASGSLFRWYAMGWYRQAPGKERELVAAINRGGDSTYYADSVKGRFTISRDNAKNTVYLQMNSLKPEDTAVYYCNAVSSWKLLYSSYDSWGQGTQVTVSS”: the “polyreactivity (PSR sort gate)” value is on record as “high polyreactivity”.

For “QVQLVESGGGLVQAGGRLRLSCAASGSTFYNYAMGWYRQAPGKERELVASIPWNGGSTYYADSVKGRFTISRDNAKNTVYLQMNSLKPEDTAVYYCAADWTWTYPYDYWGQGTQVTVSS”, the “polyreactivity (PSR sort gate)” value is listed as “low polyreactivity”.

Consider “QVQLVESGGGLVQAGGSLRLSCAASGSIIKVYAMGWYRQAPGKERELVAAITSDGSTYYADSVKGRFTISRDNAKNTVYLQLNSLKPVDTAVYYCAASVYYLYFHGKYDYWGQGTQVTVSS”, for which the “polyreactivity (PSR sort gate)” value is reported as “low polyreactivity”.

As to “QVHLVESGGGLVQAGGCLRLSCAASGYIFKSYVMGWYRQAPGKERELVAAITWSGGSTYYADSVKGRFTMSRDNAKNTVYFQMNSLKPEDTAVYYCAAYPRRYRTTYDYWRQGTQVTVSS”, the “polyreactivity (PSR sort gate)” value is “high polyreactivity”.

The values above are taken from the nanobody polyreactivity screen of Harvey et al. (2022).
